# Source: patent US20190202925A1
# How the values were obtained:
# [1] = molecular target: human TNFR2 on cells (human) (UniProt P20333); assay: cell-based or functional assay
# [2] = molecular target: monomeric human TNFR2 extracellular domain (human) (UniProt P20333); assay: BLI (Octet Red 96), Human TNFR2 Kd (1-1)
# human TNFR2 on cells (human), sequence (P20333 23-461): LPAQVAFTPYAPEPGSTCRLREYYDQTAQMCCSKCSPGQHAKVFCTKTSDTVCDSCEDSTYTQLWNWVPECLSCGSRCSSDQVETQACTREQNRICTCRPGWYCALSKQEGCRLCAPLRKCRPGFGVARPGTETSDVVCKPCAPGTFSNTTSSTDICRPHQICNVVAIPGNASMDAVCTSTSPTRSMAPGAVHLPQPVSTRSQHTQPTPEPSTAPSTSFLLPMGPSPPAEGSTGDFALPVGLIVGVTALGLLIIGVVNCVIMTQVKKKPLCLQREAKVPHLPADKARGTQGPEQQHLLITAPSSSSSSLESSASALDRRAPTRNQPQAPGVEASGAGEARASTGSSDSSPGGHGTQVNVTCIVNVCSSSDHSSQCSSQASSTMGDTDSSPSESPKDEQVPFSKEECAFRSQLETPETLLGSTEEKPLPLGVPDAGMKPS
"IC50 (µg/mL) (with pre-incubation); rescue of Jurkat H6 cells from 2 ng/mL TNFα, luminescence [1]","IC50 (µg/mL) (without pre-incubation); rescue of Jurkat H6 cells from 2 ng/mL TNFα, luminescence [1]",Kd [2] [nM],Binder
0.09,0.1,,"SBT-004 (antibody, V domains shown) VH: EVQLQQSGPEVGRPGSSVKISCKASGYTFTDYIMHWVKQSPGQGLEWIGWVDPEYGSTDYAEKFKKKATLTADTSSNTAYIQLSSLTSEDTATYFCARDDGSYSPFDYWGQGVMVTVSS VL: DIQMTQSPPSLSASLGDKVTITCQASQNINKYIAWYQQKPGKAPRLLIRYTSTLESGTPSRFSGSGSGRDYSFSISNVESEDIASYYCLQYVNLLTFGAGTKLEIK"
,,5,"chimeric SBT-004 Fc null (antibody, part only; not given: light chain and Fc null constant region, V domains shown, part only) VH: EVQLQQSGPEVGRPGSSVKISCKASGYTFTDYIMHWVKQSPGQGLEWIGWVDPEYGSTDYAEKFKKKATLTADTSSNTAYIQLSSLTSEDTATYFCARDDGSYSPFDYWGQGVMVTVSS"
